According to the RNAGym collection of RNA variant scans (doi:10.1073/pnas.2313332121):

B1: TPR t1 (parent)
chain: GACCAAUCUGCCCUCAGAGCUCGAGAACAUCUUCGGAUGCAGAGGAGGCAGGCUUCGGUGGCGCGAUAGCGCCAACGUCCUCAACCUCCAAUGCAUCCCACCACAUGAUGAUGCCUGAAGAGCCUUGGUUUUUUG

Variants of: B1
Test: polymerase ribozyme fitness, log enrichment relative to wild type (log ratio); higher = more active; in vitro selection for triplet polymerase activity
Outline: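 Frozen incubation at −7 °C formed the core of a single, triplicate in vitro selection round applied to PCR-built, transcribed mutant libraries of each subunit of a heterodimeric triplet polymerase ribozyme. Extended constructs were gel-excised, captured with streptavidin beads and amplified by RT-PCR, and input and output libraries were Illumina-sequenced with a filter of ≥10 input reads and ≥1 read per output. Fitness is the logarithm of genotype enrichment relative to wild-type enrichment, with inverse-variance-weighted replicate averaging, and the logarithm is base 2.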

Variant | polymerase ribozyme fitness (log ratio)
A6C C12U G48C U78G G110C | -4.8
A5U G110U U130A | -2.41
A5G G45U G60A C101G U133G | -3.66
A6C A37G G47C C64U U87A G120C C124G | -2.79
A6C A29U G45A G113U | -4.91
A6G A29G C72G C82G C89A G120C | -4.07
A5U A37G | 0.0705
A6C G63A | -0.611
A6C U9C C13U G17A G58A A121G | 0.229
A5U A103C G110A G113C | -5.8
A5G C85G | -2.35
A5G G57U U78G U106A G110A | -1.97
A5G U78A A95C U106G | -3.66
A5U U9A U32C A37U C49U G69U G93A | -1.24
A5G U9A A27G C53U U126A U133A | -3.09
A5U C22A G60U | -6.59
A5U U126A | -0.78
A5U A90G C123U | 0.65
A5U A74C G122A | -1.42
A5U G44A C56U G117A | -3.69
A5U G63A U125A | -2.08

Variant | polymerase ribozyme fitness (log ratio)
A6C G93U A100U | -2.54
A6C A50U G58A G60C C70U | -3.42
A5G U38G C114A | -2.6
A5U G69U | 0.406
A5G U9G U21A C56U A83U | 0.0637
A6C G23A C98A C115G | -7.8
A5U C11G A91G | -0.601
A5U C12A U21G C49A C72G | -2.35
A5G G60C G69A | -5.79
A5U U92G C104U | -2.44
A5U A43G G44A G52C C124U G128U | -4.6
A5U A6G C53U G117A U129A | -2.59
A6C A29U G52U C53U G120A C123U | -2.96
A5U G52C C62A U112A | -0.939
A6C C8A C13G A43U G69C C88A | -2.92
A6C A118U | 0.712
A5U A66C G113U C124A | -4.62
A5G G17A | -2.47
A6C G48U C72U U87C G110U | -2.52
A5U U21A | 0.185
A5U C12U U21A A84G | -2.37

Variant | polymerase ribozyme fitness (log ratio)
A6C C11A A18C C73U | -4.87
A5U C72U G113U G120U U130C | -4.48
A5U G63U | -1.8
A5U G63A | -0.665
A6C G36U U96G G120C G122A | -0.981
A5U A41U C82G G120A U125G | -2.77
A5U A46C C73A C98U | -1.57
A6C C8A C49A C56U | -0.31
A6C C40A C62U C88A C104A | -5.43
A5U A6U U7G C8U G36A A121C | 0.985
A6C G63U C115A U116C | -4.89
A6C G44C G61A C80A U112A | -4.74
A5G U59G G63U C73G A111C | -6
A5U G71U C72U C101G G117U | -5.12
A6C U59G C86U G113U | -3.51
A5G U9C C124U | 1.89
A6G A41C C56A G93U G117C | -4.14
A5U C8U C101G | -1.15
A5U U14G A83C A111C | -2.47
A5U C12U G61A | 0.0113
A6C C88U | -0.228

Variant | polymerase ribozyme fitness (log ratio)
A6C C73U C89U G113A | -2.7
A6C A121U | 1.95
A5G G58A G63A | -0.764
A5U C62U C72U | -0.208
A5U U9G G36A G39A U96G | -5.14
A6C A41U U106A | -1.37
A5U A18C A111C | -2.56
A6C C72U G93U A100U | -2.39
A5U U33G C76A C80A A83C G113U A119U | -6.4
A5U C12A C22G A27C U38G A111U | -2.81
A5U U9A U32C A37U C49U G69A G93A | -4.95
A5U U9A A18U | -2.06
A6C C97G | -5.16
A6C C97U | -1.01
A5U G122A | -0.551
A5U C15A C62A G122A | -4.9
A6G A46C G48U G52U A95C | -5.42
A6G A41U C85G A119U U125G | -6.15
A6C G39U G77U G113U C114G | -3.79
A5U A41C G77A G110A A121C U130A | -5.22
